Measurements as given in the nanobody polyreactivity screen of Harvey et al. (2022).

Experiment: yeast display, Sf9 membrane polyspecificity reagent, FACS + sequencing; frameworks hold sequencing errors
Procedure, shortened: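 Sorting gates, low and high (top ~1%), were placed on anti-HA fluorescence to track expression and on streptavidin fluorescence to track reagent binding. A clone's polyreactivity label is taken from the gate it came out of. The reagent was 10% biotinylated, detergent-solubilized Sf9 membrane, applied for 1 hour at 4 °C to galactose-induced yeast display cells.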

| Sequence | polyreactivity (PSR sort gate) |
| --- | --- |
| QVQLVESGGGLVQAGGSLRLSCAASGFTFWVYAMGWYRQAPGKERELVAAISARGGSTYYADSVKVRFTISRDNAKNTVYLQMNRLKPEDTAVYYCAAEPSGKRSKFYYWGQGTQVTVSS | high polyreactivity |
| QVQLVESGGGLVQAGGSLRLSCAASGSIFFYNTMGWYRQARGKERELVATINSDDSTYYADSVKGGFTISRDNAKNTVYIQMNSLKPEDTAVYYCNVRVKGGKLVAYDYWGQGTQVTLSS | low polyreactivity |
| QVQLVESGGGLFQAGGSLRLSCAASGRIFGAYTMGWYRQAPGKERELVAAISDGGDTYYADSVKGRFTISRDNAKNTVYLQMNSLKPEDTAVYYCAADAPYYAYYWYPSSLGIYGYWGQGTQVTVSS | low polyreactivity |
| QVQLVESGGGLVQAGGSLRLSCPASGRTFILNDMGRYRQAPGKEREFVATIDWSGGSSYYADSVKGRFTISRDNAKNTVFLQMNSLKPEDTAVYYCNRAFVPVYDLDYYWGQGTQVTVSS | low polyreactivity |
| QVQHVESGGGLLQAGGSLRLTCTASRSIFPYYAMGWYRQATGKERELVAAISSSGARTYYADSVKGRFTISRDNAKNTVYLQMNSLKPEDTGFYYCNSDTIRYRTYGRYAWYNYWGQGTQVTVSS | high polyreactivity |
| QVQLVESGGGLVQAGGSLRLSCAASGRIFGGNTMGWYRQAPGKEREFVAAITQSGTRTYYADSVKGRFTISRDNAKNTVYLQMNSLKPEDTAVYYCAAEGYWYPYDYWGQGTQVTVSS | high polyreactivity |
| QVQLVESGGGLVQAGGSLRLSCAASGSIFYRNAMGWYRQAPGKERELVASISSSAGRTYYADSVKGRFTISRDNAKNTVYLQMNSLKPEDTAVYYCAVTSYRQRGAFDYWGQGTQVTVSS | high polyreactivity |
| QVQHVESRGGLVQAGGSLRLSCAASGFISRAYAMGWYRQAPGKERELVAAISVRVGSTYYADSVKGRFTISRDNAKNTVYLQMYSLKPEDTAVYYCAALRPWPRYDYWGQGTQVTVSS | high polyreactivity |
| QVQLVESGGGLVQAGGSLRLSCAASGFTLGTNTMGWYRQAPGKEREFVAAISGRGSSTYYADSVKGRFTISRDNAKNTVYLQMNSLKPEDTAVYYCNKVFWPHPKVVTGNYWGQGTQVTVSS | high polyreactivity |
| QVQLVESGGGLVQAGGSLRLSCAASGSTFTSYAMGWYIQAPGKERELVAAIRYRGDGTYYADSVKGRFTISRDNAKNTVYLQMNSLKPEDTAVYYCAADTTLQAFIRYRPIGSYDSWGQGTQVTVSS | low polyreactivity |
| QVQLVESGGGLVQAGGSLRLSCAASGRIFGRNAMGWYRQAPGKERELVASITSGGGTNYADSVKGRFTISRDNAKNTVYLQMNCLKPEDTAVYYCAAKRHLEGYSGSIGRYYYWGQGTQVTVSS | low polyreactivity |
| QVQLVESGGGLVQAGGSLRLSCAASGSTFRYYAMGWYRQAPGKERELVARITSRAGRTYYADSVKGRFTLSRDNAKNTVYLQMNSLKPEDTAVYYCNTRDFSGYVHALSLYDYWGQGTQVTVSS | high polyreactivity |
| QVQLVESGGGLVQAGGSLRLSCAASGFIFGYYAMGWYRQAPGKERELVAAISSGGTTTYYADSVKGRFTISRDNAKNTVYLQMNSLKPEDTAVYYCAKVSQRRVDNSDYDYWGQGTQVTVSS | high polyreactivity |
| QVQIVESRVGLVQAGGSLRLSCAAYGSIFYYNAMGWYRQAPGKERELVAAITSSGGSTYADSVKGRFTISRDNAKNTVYLQMNSLKQEDTAVYYCATVAHGLWSGSGYIYAYDYWGQGTQVSVSS | low polyreactivity |
| QVQLVESGGGLVQAGGSLRLSCAASGFIFRYYAMGWYRQAPGKERELVAAISSRGGSTYYADSVKGRFTISRDNAKNTVYLQMNSLKPEDTAVYYCAKRGFYTDRDYWGQGTQVTVSS | high polyreactivity |
| QVQLVESGGGLVQAGGSLRLSCAASGSTLANYAMGWYRQAPGKERELVAAINSGGSTYYADSVKGRFTISRDNAKNTVYLQMNSLKPEDTAVYYCAAETPNYYGRWEPVWHYYWGQGTQVTVSS | high polyreactivity |
| QVQLVESGGGLVQAGGSLRLSCAASGRTFANYVMGWYRQAPGKERELVAGMTGSGGSTYYADSVKGRFTISRDNAKNTVYLQMNSLKPEDTAVYYCAKRYVYVASMGYWGQGTQVTVSS | high polyreactivity |
| QVQLVESGGGLVQAGGSLRLSCAASGSSLYYNAMGWYRQAPGKERELVAAISWSGGSTYYADSVKGRFTISRDNAKNTVYLQMNSLKPEDTAVSYCAADQSTVLDVGSWGQGTQVTVSS | low polyreactivity |
| QVQLVESGGGLVQAGGSLRLSCAASGIIFRNYAMGWYRQAPGKERELVAAISWTGDSTYYADSVKGRFTISRDNAKNTVYLQMNSLKPEDTAVDYCAAEAYYGLWMDYWGQGTQVTVSS | low polyreactivity |
| QVQLVESGGGLVQAGGSLRLSCAASGSIFGRNAMGWYRQAPGKEREFVAAISQRGGRTYYADSVKGRFTISRDNAKNTVYLQMNSLKPEDTAVYYCAATYTRVPNRFYYWGQGTQVTVSS | high polyreactivity |
| QVQLVESGGGLVQAGGSLRLSCAASGRIFGRYAMGWYRQAPGKERELVAAISSGGNTYYADSVKGRFTISRDNAKNTVYLQMISLKPEDTAVYYCNALYYRPPGYDYWGQGTQLTVSS | high polyreactivity |

| Sequence | polyreactivity (PSR sort gate) |
| --- | --- |
| QVQLVESGGGLVQAGGSLRLSCAASGRIFGKNAMGWYRQAPGKERELVAAISSSGGSTYYADSVKGRFTISRDNAKNTVYLQMNSLKPEDTAVYYCAAGVTRGMDYWGQGTQVTVSS | high polyreactivity |
| QVQLVESGGGLVQAGGSLRLSCAASGFIFGYNTMGWYRQAPGKERELVAAISWSGGSTYYADSVKGRFTISRVNAKNSVYLQMNSLKPEDTAVYYCATVSRSYSELDYWGQGTQVTVSS | low polyreactivity |
| QVQLVETGGGLVKAGGSLRLSCAASGITFSVYTMGWDRQAPGKERELVASITRSVGSTYYADSVKGRFTISRDNAKNTVYLQMNSLKPEDTAVYYCAARRTVVTGRYYWGQGTQVTVSS | high polyreactivity |
| QVQLVESGGGLVQAGGSLRLSCAASGTIFDDNAMGWYRHAPGKERELVAAISANDGSTYYADSVKGRFTISRDNAKNTVYLQMNSLKQEDTAVYYCAVLRVETVDIWEYDYWGQGTQVTVTS | low polyreactivity |
| QVQLVESGGGLVQAGGSLRLSCAASGGIFRWYAMGWYRQAPGKEREFVAVITTDGGSTYYADSVKGRFTISRDNAKNTVYLQMNSLKPEDTAVYYCAADYTLIYDYWGQGTQVTVSS | low polyreactivity |
| QVQLVESGGGLLQAGGSLRLSCAASVSIFDSYAMGWYREAPGKERELVAVISESGGTTYNADSVKGRFTISRDNAKNTVYLQMNSLKPEDTAVYYCAAVWYFQFGVWGYYWGQGTQVTVSS | low polyreactivity |
| QVQLVESGGGLVQAGGSLRLSCAASGITFVQYAMGWYRQAPGKERELVAAITSDGRTYYADSVKGRFTISRDNAKNTVYLQMNSLKPEDTAVYYCAADVWRYTAYGGAYRRDYWGQGTQVTVSS | low polyreactivity |
| QVQLVESGGGLVQAGGSLRLSCAASGFTFDTNAMGWYRQAPGKERELVAAISWGGDTTYYADSVKGRFTISRDNAKNTVYLQMNSLKPEDTAVYYCNVYWYDWWGYDYWGQGTQVTVSS | high polyreactivity |
| QVQLVESGGGLVQAGGSLRLSCAASGSIFRSYAIGWYRQAPGKERELVASISRRGGSTYYADSVKGRFTISRDNAKNTVYLQMKSLKPEDTAVYYCAAVRYNSRVSTTPSEMYYWGQGTQVTVSS | low polyreactivity |
| QVQLVETGGGIVQAGGSLRLSCAASGFTFFRNAMGWYRQAPGKERELVAAISGSGGSTYYADSVKGRFTISRDNAKNKVYLQMNSLKPEDTAVYYCNAQKQIREPGNERLNYWGQGTQVTVSS | low polyreactivity |
| QVQLVESGGGLVQAGGSLRLRCAASGIIFDGNVMGWYSQAPGKEREFVASISISGGSTSYADSVKGRFTISRDNAKNTVYLQMNSLNPEDTAVYYCNTDVGYGRVWRWRYHGDYWGQGTQVTVSS | low polyreactivity |
| QVQLVESGGGLVQAGGTLRLSCAASGVIFKVYGMRWYRQAPGKERELVAAISWTTGGTYYADSVKGRFTISRDNAKNTVYLQMNSLKPEDTAVYYCNAPSWYYSGVRYDYWGQGTQVTVSS | high polyreactivity |
| QVQLVESGGGLVQAGGSLRLSCAASGRTFWGYAMGWYRQAPGKERELVAAISCRGGRTYYADSVKGRFTISRDNAKNTVYLQMNSLKPEDTAVYYCNRAYLLRPDLYDYWGQGTQVTVSS | low polyreactivity |
| QVQLVESGGGLVQAGGSLRLSCAASGLIIWLYTMGWYRQAPGKERELVAAIDWSGGSTYYADSVKGRFTISRDNAKNTVYLQMNSLKPEYTAVYYCAADPEPSYRFDYWGQGTQVTVSS | low polyreactivity |
| QVQLVESGGGLVQSGGSLRLSCAASGSILKFNAMVWYRQAPGKERELVAAITRGTNTYYADSVKGRFTISRDNAKNTVYLQMNSLKPEDTAVYYCAARLPYNAIGYYYWGQGTQVTVSS | low polyreactivity |
| QVQLVESGGGLVQAGGSLRLSCAASGSTFDTYAMGWYRQAPGKERELGAAISWSVDSTYYADSVKGRFTISRDNAKNTVYLQMNSLKPEDTAVYYCATVGYGYDYWGQGTQVTVSS | high polyreactivity |
| QVQLVESGGGLVQAGGSLRLSCAASGRIFKANDMGWYRQAPGKERELVAITSSDSTNYADSVKGRFTISRDNAKNTVYLQMNSLKPEDTAVYYCAALSYYYSDRMDYWGQGTQVTVSS | low polyreactivity |
| QVQLVESGGGLVQAGGSLRLSCAASGRIFAYNAMGWYRQAPGKERELVAAISWRVGCTYYADSVKGRFTISRDHAKNTVYLQMNSLKPEDTAVYYCNEAYYRHYQGDYWGQGTQVTVSS | high polyreactivity |
| QVQLVESGGGLVQAGGSLRLSCAASGSTFDVYAMGWYRQAPGKERELVATISTSGGDTYYADSVKGRFTISRDNAKNTVYLQMNSLNPEDTAVYYCNVSASYYSPDPKVLVRYDYWGQGTQVTVSS | low polyreactivity |
| QVQLVESGGGLVQAGGSLRLSCAASGRIFYRYAMGWYRQAPGKERELVAAITGSGGSTYYADSVKGRFTISRDNAKNTVYLQMNSLKPEDTAVYYCNAVYARYGSQGYEYWGQGTQVTVSS | high polyreactivity |
